Source: patent US20090208490A1 (AbbVie / Abbott, published 2009)

How the values were obtained:
[1] = biological target: T1, recombinant mouse proNGF (rm-proNGF) (mouse, UniProt P01139 19-241); test: SPR (BIAcore), antibody immobilized
[2] = biological target: T1, recombinant mouse proNGF (rm-proNGF); test: SPR (BIAcore 2000), antibody amine-coupled on CM5 chip (3000 RU), rm-proNGF injected, kinetic analysis
Method: The injected concentrations of the rm-proNGF are indicated on top of each curve.
(§1) Experiments were performed on CM5 chips with amine coupling, using a BIAcore 2000 machine. Coupling was performed with a specific kit purchased at BIAcore and the coupling reaction was carried out according to manufacturer's instructions.
(§2) Anti-NGF antibodies were immobilized on chip, while mouse NGF (m-NGF, Alomone) or recombinant mouse proNGF (rm-proNGF) were injected at decreasing concentrations to obtain binding curves.

[3] = biological target: T2, mouse NGF (m-NGF, Alomone) (mouse, UniProt P01139 122-241); test: SPR (BIAcore 2000), antibody amine-coupled on CM5 chip, m-NGF injected
T2 construct: mature; Commercial m-NGF
T2 sequence (P01139 122-241 limits assumed): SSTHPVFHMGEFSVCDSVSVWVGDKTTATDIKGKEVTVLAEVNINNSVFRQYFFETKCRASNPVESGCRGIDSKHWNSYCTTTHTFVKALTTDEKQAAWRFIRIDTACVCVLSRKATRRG
Method: For m-NGF binding, the immobilization of the antibody was of 3000 resonance units (RU) in the experiment of panel A and of 6000 RU in the experiment of panel B. The injected concentrations of the m-NGF are indicated on top of each curve. From a complete analysis of the data, the affinity parameters were evaluated, and resulted to be the following.
as §1, §2

T1 sequence (P01139 19-241): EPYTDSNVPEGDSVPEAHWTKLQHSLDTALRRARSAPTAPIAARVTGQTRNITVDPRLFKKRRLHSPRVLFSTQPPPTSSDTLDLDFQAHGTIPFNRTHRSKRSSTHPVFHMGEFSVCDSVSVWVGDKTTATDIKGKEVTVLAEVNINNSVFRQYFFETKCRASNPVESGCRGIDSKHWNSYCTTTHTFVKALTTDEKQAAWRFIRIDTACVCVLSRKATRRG

B1: Hu-αD11 (humanized variant of the αD11 anti-NGF antibody) (antibody, V domains shown)
VH: EVQLVESGGGLVQPGGSLRLSCAASGFSLTNNNVNWVRQAPGKGLEWVGGVWAGGATDYNSALKSRFTISRDNSKNTAYLQMNSLRAEDTAVYYCARDGGYSSSTLYAMDAWGQGTLVTVSS
VL: DIQMTQSPSSLSASVGDRVTITCRASEDIYNALAWYQQKPGKAPKLLIYNTDTLHTGVPSRFSGSGSGTDYTLTISSLQPEDFATYFCQHYFHYPRTFGQGTKVEIK
notes: also called Hu-alphaD11; Hu-aD11
- binding result [1]: binds

B2: αD11 anti-NGF antibody (antibody, V domains shown)
VH: QVQLKESGPGLVQPSQTLSLTCTVSGFSLTNNNVNWVRQATGRGLEWMGGVWAGGATDYNSALKSRLTITRDTSKSQVFLKMHSLQSEDTATYYCARDGGYSSSTLYAMDAWGQGTTVTVSA
VL: DIQMTQSPASLSASLGETVTIECRASEDIYNALAWYQQKPGKSPQLLIYNTDTLHTGVPSRFSGSGSGTQYSLKINSLQSEDVASYFCQHYFHYPRTFGGGTKLELK
notes: Rat monoclonal antibody purified from hybridoma supernatant; the constant regions are not; also called alphaD11; aD11
- Ka [2]: 1.2e+09 M⁻¹
- Kd [2]: 1.9 nM
- Kd [3]: 0.0028 nM
